To fix the notation:
B1: H1H5801B (antibody, human IgG1, V domains shown)
VH: QVQLVQSGGGVVQPGGSLRLSCAASGFTFDDYAMHWVRQAPGKGLEWVSLISGDGGSTYYADSVKGRFTISRDNSKNSLYLQMNSLRTEDTALYYCAKDDSSSSWYYYYYGMDVWGRGTTVTVSS
VL: DIQMTQSPSSLSASVGDRVTITCRASQRISSYLNWYQQKPGKAPKVLISVASSLQSGVPSRFSGSGSGTDFTLTISSLQPEDFASYYCQQSYNTPLTFGGGTKVEIKR
notes: H1H: human IgG1 Fc; divalent
B2: H1H5795B (antibody, human IgG1, V domains shown)
VH: EVQLVESGAEVKKPGASVKVSCKTSGYSFIGYYIHWMRQAPGQGLEWMGWINPKSGVTNYAQRFQGRVTMTRDTSISTAYMELSRLKSDDTAVYFCARMGDGAVFDFWGQGTLVTVSS
VL: DIQLTQSPSSLSASVGDRVTITCRASQRISSFLNWYQQKPGKVPKLLIYTASNLQNGVPSRFSGTGSGTDFTLTISSLQPEDFATYYCQQSYRTPLTFGGGTKVDIKR
notes: H1H: human IgG1 Fc; divalent
B3: H1H5799P (antibody, human IgG1, V domains shown)
VH: QVQLVQSGAEVKKPGASVKVSCKASGYTFIGYYMHWVRQAPGQGLEWMGWINPKSGGTNYAQKFQGRVTMTGDTSISTAYMELSRLRSDDTAVFYCARMGDGAMFDYWGQGTLVTVSS
VL: DIQMTQSPSSLSASVGDRVTITCRASQRISSYLNWYQQKAGKAPKVLIYTASSLQSGVPSRFSGSGSGTDFTLTISSLQPEDFATYYCQQSYSTPLTFGGGTKVEIK
notes: H1H: human IgG1 Fc; divalent
B4: H1H7194P (monovalent 1-arm) (antibody, human IgG1, V domains shown)
VH: EVQLVESGGGLVQPGRSLRLSCAASGFTFGDYTMHWVRQAPGKGLEWVSDISWNSGSKDYADSVKGRFTISRDNAKNSLYLQMNSLRTEDTAFYYCAKDSRGYGLYYHLGLDVWGQGTTVTVSS
VL: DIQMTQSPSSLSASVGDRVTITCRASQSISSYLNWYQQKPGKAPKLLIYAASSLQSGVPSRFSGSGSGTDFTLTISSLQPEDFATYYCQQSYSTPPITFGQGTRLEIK
notes: Monovalent 1-arm: second Fab removed, only the Fc portion (CH2-CH3) expressed; human IgG1 Fc; tied by numerical identifier; also called H1H7194B
B5: H1H7195P (monovalent 1-arm) (antibody, human IgG1, V domains shown)
VH: B4 VH with G30A, K58I, D59A, L105H, Y107K, H108Y
VL: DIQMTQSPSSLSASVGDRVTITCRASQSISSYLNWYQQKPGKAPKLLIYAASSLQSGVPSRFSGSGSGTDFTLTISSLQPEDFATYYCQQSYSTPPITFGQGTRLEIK
notes: Monovalent 1-arm: second Fab removed, only the Fc portion (CH2-CH3) expressed; human IgG1 Fc; tied by numerical identifier; also called H1H7195B
B6: H1xH7221G5 (monovalent 1-arm) (antibody, V domains shown)
VH: EVQLVESGGGLVQPGRSLRLSCAASGFTFDDYSMHWVRQAPGKGLEWVSGISWNSGSIGYADSVKGRFTISRDNAKNSLYLQMNSLRAEDTALYYCAKDGSGYGKFYYYGMDVWGQGTTVTVSS
VL: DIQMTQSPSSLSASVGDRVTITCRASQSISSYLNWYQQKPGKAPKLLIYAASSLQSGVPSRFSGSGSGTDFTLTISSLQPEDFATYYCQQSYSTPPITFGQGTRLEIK
notes: Monovalent 1-arm: second Fab removed, only the Fc portion (CH2-CH3) expressed; prefix H1xH not explained
B7: H1xH7221G3 (monovalent 1-arm) (antibody, V domains shown)
VH: B6 VH with K105Y
VL: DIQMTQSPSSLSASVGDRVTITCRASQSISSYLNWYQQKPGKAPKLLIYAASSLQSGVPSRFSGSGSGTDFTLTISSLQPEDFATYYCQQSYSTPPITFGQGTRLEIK
notes: as for B6
B8: H1H7223P (monovalent 1-arm) (antibody, human IgG1, V domains shown)
VH: QVQLVESGGGLVQPGRSLRLSCAASGFTFADYTMHWVRQAPGKGLEWVSDISWNSGSMGYADSVKGRFTISRDNAKKSLYLQMNSLRTEDTALYYCAKDGSGYGKYFFYAMDVWGQGTTVTVSS
VL: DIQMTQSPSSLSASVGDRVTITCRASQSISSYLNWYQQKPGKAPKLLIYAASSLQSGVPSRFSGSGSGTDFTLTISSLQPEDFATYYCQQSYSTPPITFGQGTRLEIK
notes: Monovalent 1-arm: second Fab removed, only the Fc portion (CH2-CH3) expressed; human IgG1 Fc; tied by numerical identifier; also called H1H7223B
B9: H1H7198P (monovalent 1-arm) (antibody, human IgG1, V domains shown)
VH: EVQLVESGGGLVQPGRSLRLSCAASGFTFADYTMHWVRQVPGKGLEWVSDISWNSGSKDYADSVKGRFTISRDNAKNFLYLQMNSLRAEDTALYYCVKYGSGYGKFYFYAMDVWGQGTTVTVSS
VL: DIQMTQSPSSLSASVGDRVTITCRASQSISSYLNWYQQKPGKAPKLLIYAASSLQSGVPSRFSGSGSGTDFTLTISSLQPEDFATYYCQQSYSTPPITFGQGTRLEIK
notes: Monovalent 1-arm: second Fab removed, only the Fc portion (CH2-CH3) expressed; human IgG1 Fc; tied by numerical identifier; also called H1H7198B
B10: H1H7221P (monovalent 1-arm) (antibody, human IgG1, V domains shown)
VH: B6 VH with A23V, I58K, G59D, D99Y, Y108H, M111L
VL: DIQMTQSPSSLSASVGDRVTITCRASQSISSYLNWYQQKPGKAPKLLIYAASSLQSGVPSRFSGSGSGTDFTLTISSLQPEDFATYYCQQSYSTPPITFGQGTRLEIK
notes: Monovalent 1-arm: second Fab removed, only the Fc portion (CH2-CH3) expressed; human IgG1 Fc; tied by numerical identifier; also called H1H7221B
B11: H1H7232P (monovalent 1-arm) (antibody, human IgG1, V domains shown)
VH: B6 VH with Q13H, S33T, G50D, I58R, K76E, G100K, K105H, F106Y, G110A
VL: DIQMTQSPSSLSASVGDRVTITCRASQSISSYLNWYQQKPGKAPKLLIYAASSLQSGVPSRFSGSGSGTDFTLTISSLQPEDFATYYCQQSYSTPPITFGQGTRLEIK
notes: Monovalent 1-arm: second Fab removed, only the Fc portion (CH2-CH3) expressed; human IgG1 Fc; tied by numerical identifier; also called H1H7232B
B12: H1H7211P (monovalent 1-arm) (antibody, human IgG1, V domains shown)
VH: EVQLVESGGGLVHPGRSLRLSCTASGFKFADYTMHWVRQAPGKGLEWVSDISWNSGSKGYADSVKGRFTISRDNDKNSLYLQMNSLRGEDTALYYCAKDGSGYGRFHFYAIDVWGQGTTVTVSS
VL: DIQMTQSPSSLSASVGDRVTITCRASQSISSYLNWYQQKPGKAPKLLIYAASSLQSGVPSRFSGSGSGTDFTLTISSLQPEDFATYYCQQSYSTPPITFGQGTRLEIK
notes: Monovalent 1-arm: second Fab removed, only the Fc portion (CH2-CH3) expressed; human IgG1 Fc; tied by numerical identifier; also called H1H7211B
B13: H1H7196P (monovalent 1-arm) (antibody, human IgG1, V domains shown)
VH: EVQLVESGGGMVQPGRSLRLSCAASGFPFNDYTMHWVRQVPGRGLEWVSDISWNSGSKGYADSVKGRFIISRDNAKNSLYLQMNSLRVEDTALYYCVKDGSGYGRFHYYAMDVWGQGTTVTVSS
VL: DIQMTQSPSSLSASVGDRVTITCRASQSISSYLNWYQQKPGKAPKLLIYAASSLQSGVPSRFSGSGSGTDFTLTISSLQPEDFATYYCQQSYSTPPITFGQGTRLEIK
notes: Monovalent 1-arm: second Fab removed, only the Fc portion (CH2-CH3) expressed; human IgG1 Fc; tied by numerical identifier; also called H1H7196B
B14: H1H7204P (monovalent 1-arm) (antibody, human IgG1, V domains shown)
VH: EVQLVESRGALVQPGRSLRLSCAASGFAFNDYTMHWVRQAPGKGLEWVSDISWNSNSKDYADSVKGRFTISRDNAKNSLYLQMNSLRAEDTALYYCVKDGSGYGKFSLYALDVWGQGTTVTVSS
VL: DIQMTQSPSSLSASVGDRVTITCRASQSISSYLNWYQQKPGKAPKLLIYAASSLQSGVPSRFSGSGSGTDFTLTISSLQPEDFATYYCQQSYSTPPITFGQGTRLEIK
notes: Monovalent 1-arm: second Fab removed, only the Fc portion (CH2-CH3) expressed; human IgG1 Fc; tied by numerical identifier; also called H1H7204B
B15: H1H7203P (monovalent 1-arm) (antibody, human IgG1, V domains shown)
VH: B9 VH with E6Q, V40T, D50G, F78S, A88T, V97A, K105R, F106Y, Y107F
VL: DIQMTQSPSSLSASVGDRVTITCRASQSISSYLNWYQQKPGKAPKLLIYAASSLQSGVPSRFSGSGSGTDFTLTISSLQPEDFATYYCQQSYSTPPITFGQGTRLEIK
notes: Monovalent 1-arm: second Fab removed, only the Fc portion (CH2-CH3) expressed; human IgG1 Fc; tied by numerical identifier; also called H1H7203B

These results are taken from patent US20190127480A1 (Regeneron, published 2019).

Residue numbers refer to the chain shown, from its start.

One may read the Kd as the equilibrium constant for the complex coming apart. Lower therefore signals a tighter complex. The koff is the rate constant with which the complex falls apart. Usually kon stands for a measure of how fast the partners come together. High values mean fast association, low ones slow association.

T1 sequence (P07766 23-126 limits assumed, stated change not applied, chain 1 of 2): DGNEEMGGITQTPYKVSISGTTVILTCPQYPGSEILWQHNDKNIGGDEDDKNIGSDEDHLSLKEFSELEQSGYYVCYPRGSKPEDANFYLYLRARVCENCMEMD
T1 sequence (P04234 22-105 limits assumed, stated change not applied, chain 2 of 2): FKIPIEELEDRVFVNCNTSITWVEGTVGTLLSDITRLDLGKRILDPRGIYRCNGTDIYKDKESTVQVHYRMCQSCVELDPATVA

The first test concerns the target T1, Soluble heterodimeric CD3 protein (hCD3-epsilon/hCD3-delta) with either a human Fc tag (hFcΔAdp/hFc) or a … (human, UniProt P07766 23-126; P04234 22-105).
T1 construct: also called hCD3ε/δ; not shown: Fc tag: human (hFcΔAdp/hFc)
Nature of the test: SPR Biacore 25C antigen-capture. The method in brief: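 Rate constants fitted to a 1:1 model, giving KD as kd/ka and dissociative half-life as ln2/(60·kd) minutes. Antibodies flowed over CD3ε/δ heterodimer captured on anti-human or anti-mouse Fc surfaces, run on a Biacore T200 at 25 °C.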
For B1, the Kd worked out at 3.38 nM, the “T½” value is 10 min, the koff turned out to be 0.00112 s⁻¹ and the association rate constant (kon) worked out at 331000 M⁻¹ s⁻¹.
Take B2: the Kd was 0.145 nM, the “T½” value stood at 50 min, the off-rate constant (koff) amounted to 0.000229 s⁻¹ and the kon came to 1.58e+06 M⁻¹ s⁻¹.
As to B3, binding was put at a Kd of 7.85 nM, the “T½” value was found to be 2 min, the koff was determined as 0.00564 s⁻¹ and the on-rate (kon) stood at 718000 M⁻¹ s⁻¹.

Another test concerns the target T1, Soluble heterodimeric CD3 protein …. Nature of the test: SPR Biacore 25C antibody-capture, 1-arm. As to the method: Soluble heterodimeric CD3 protein (hCD3-epsilon/hCD3-delta; SEQ ID NOs:1652/1653) with either a human Fc tag (hFcΔAdp/hFc; SEQ ID NOs:1683/1684) or a mouse Fc tag (mFcΔAdp/mFc; SEQ ID NOs:1685/1686) was injected over the antibody captured surface and the binding response was recorded. Heterodimeric CD3 protein was purified using the method described in Davis et al. (US2010/0331527).
(§1) Kinetic association (kₐ) and dissociation (kd) rate constants were determined by processing and fitting the data to a 1:1 binding model using Scrubber 2.0 curve fitting software. Binding dissociation equilibrium constants (KD) and dissociative half-lives (t₁₁₂) were calculated from the kinetic rate constants as: KD (M)=kd/kₐ; and t_{1/2} (min)=(ln 2/(60*kd). NT=not tested; NB=no binding observed.
(In general: SPR reads the build-up and loss of mass on a sensor chip optically.)
Take B4: the Kd turned out to be 13 nM, the “T½” value was 76 min, the off-rate constant (koff) worked out at 0.000151 s⁻¹ and the on-rate (kon) amounted to 11600 M⁻¹ s⁻¹.
Regarding B5, the dissociation constant Kd worked out at 3.16 nM, the “T½” value was 117 min, the koff was 9.89e-05 s⁻¹ and the on-rate constant (kon) came out at 31300 M⁻¹ s⁻¹.
Regarding B6, the binding result is listed as “no binding”.
For the molecule B7, the binding result is on record as “no binding”.
Turning to B8, the dissociation constant (Kd) was determined as 19.2 nM, the “T½” value came to 38 min, the koff came to 0.000307 s⁻¹ and the kon stood at 16000 M⁻¹ s⁻¹.
Taken in the same sequence, the figures for B9 were 6.02 nM, 73 min, 0.000158 s⁻¹ and 26300 M⁻¹ s⁻¹.
For B10, the Kd turned out to be 27.5 nM, the “T½” value was determined as 40 min, the koff worked out at 0.000292 s⁻¹ and the kon stood at 10700 M⁻¹ s⁻¹.
On the same counts, the results for B11 are 220 nM, 7 min, 0.00177 s⁻¹ and 8030 M⁻¹ s⁻¹.
On the same counts, the results for B12 are 11.3 nM, 73 min, 0.000159 s⁻¹ and 14100 M⁻¹ s⁻¹.
Consider B13, for which the Kd turned out to be 41.3 nM, the “T½” value was found to be 26 min, the koff was found to be 0.000443 s⁻¹ and the kon was determined as 10700 M⁻¹ s⁻¹.
Taken in the same sequence, the figures for B14 were 25.3 nM, 32 min, 0.000362 s⁻¹ and 14300 M⁻¹ s⁻¹.
On to B15, for which the dissociation constant (Kd) is 18.3 nM, the “T½” value amounted to 43 min, the koff stood at 0.000267 s⁻¹ and the kon was 14600 M⁻¹ s⁻¹.

For the next test the target is unchanged. Nature of the test: SPR Biacore 25C antibody-capture.
In the case of B1, the Kd was determined as 246 nM, the “T½” value is 7 min, the dissociation rate constant (koff) is 0.00162 s⁻¹ and the on-rate (kon) was 6570 M⁻¹ s⁻¹.
Taken in the same sequence, the figures for B2 were 33.3 nM, 20 min, 0.000576 s⁻¹ and 17300 M⁻¹ s⁻¹.
On the same counts, the results for B3 are 579 nM, 1 min, 0.00788 s⁻¹ and 13600 M⁻¹ s⁻¹.

A further test shares this target. Description: SPR Biacore 25C antigen-capture, 1-arm. As to the method: In the antigen-capture format, heterodimeric CD3 protein was captured using a rabbit anti-mouse Fc or mouse anti-human Fc and the respective antibodies were injected over the captured antigen.
as §1
As for B4, the Kd is 0.241 nM, the “T½” value was 137 min, the dissociation rate constant (koff) is 8.43e-05 s⁻¹ and the kon was 350000 M⁻¹ s⁻¹.
B5: the equilibrium dissociation constant (Kd) stood at 0.126 nM, the “T½” value is 162 min, the dissociation rate constant (koff) was 7.14e-05 s⁻¹ and the kon was 566000 M⁻¹ s⁻¹.
On the same counts, the results for B8 are 1.53 nM, 40 min, 0.000286 s⁻¹ and 187000 M⁻¹ s⁻¹.
Taken in the same sequence, the figures for B9 were 0.112 nM, 163 min, 7.07e-05 s⁻¹ and 628000 M⁻¹ s⁻¹.
With B10, the equilibrium dissociation constant (Kd) was 1.75 nM, the “T½” value turned out to be 48 min, the koff amounted to 0.000239 s⁻¹ and the kon turned out to be 136000 M⁻¹ s⁻¹.
B11: binding was characterised by a dissociation constant (Kd) of 10 nM, the “T½” value was found to be 8 min, the koff is 0.00149 s⁻¹ and the kon amounted to 149000 M⁻¹ s⁻¹.
Taken in the same sequence, the figures for B12 were 0.279 nM, 120 min, 9.61e-05 s⁻¹ and 345000 M⁻¹ s⁻¹.
Turning to B13, the equilibrium dissociation constant (Kd) is 2.49 nM, the “T½” value came out at 25 min, the off-rate (koff) amounted to 0.000461 s⁻¹ and the on-rate (kon) was found to be 185000 M⁻¹ s⁻¹.
As for B14, the affinity, expressed as Kd, was 2.12 nM; the “T½” value was 32 min; the off-rate (koff) is 0.000365 s⁻¹; the kon came to 173000 M⁻¹ s⁻¹.
On the same counts, the results for B15 are 0.498 nM, 48 min, 0.000238 s⁻¹ and 479000 M⁻¹ s⁻¹.
